The values below come from paper PMC4164354.

Experiment [1] addresses bovine lactoferrin purified from bovine colostrum as the high molecular weight biomacromolecular complex (HMW-bLf) (bovine). The experiment is described as follows: SDS-PAGE and Western blot; 3 mg mL^-1 HMW-bLf in 50 mM Tris HCl pH 7.5 with 1 M NaCl, 1 day at 37°C; gradient SDS-PAGE (reducing gel), blot probed with goat anti-bLf.
The target of experiment [2] is native monomeric bovine lactoferrin (NM-bLf) (bovine). The experiment is described as follows: SDS-PAGE; NM-bLf stored at high concentration; denaturing SDS-PAGE; data not shown.

Several values for one entry are separate records, joined by “and”; a condition that tells them apart may be missing. Identical values can stand only once.

The substance “bovine lactoferrin purified from bovine colostrum as the high molecular weight biomacromolecular complex (HMW-bLf) (natural protein)” came in with a stoichiometry N in experiment [1] of 2. As for “native monomeric bovine lactoferrin (NM-bLf) (natural protein)”, the stoichiometry N in experiment [2] was 3 and 2.
